Assay results published in the supplement of paper PMC10065799, “High-throughput profiling of sequence recognition by tyrosine kinases and SH2 domains using bacterial peptide display” (eLife, 2023).

Columns and labels:
[1] = molecular target: Fyn (UniProt P06241); assay: phosphorylation enrichment, bacterial display (enrichment ratio); higher = better substrate or ligand; peptides without Tyr show the background
[2] = tested on: AncSZ; assay: as above
[3] = molecular target: Jak2 (UniProt O60674); assay: as above
[4] = molecular target: MERTK (UniProt Q12866); assay: as above
[5] = tested on: c-Abl (mouse); assay: as above
[6] = molecular target: Fes (UniProt P07332); assay: as above
[7] = molecular target: EPHB1 (UniProt P54762); assay: as above
[8] = molecular target: EPHB2 (UniProt P29323); assay: as above
[9] = molecular target: Hck (UniProt P08631); assay: as above
[10] = molecular target: FGFR3 (UniProt P22607); assay: as above
[11] = tested on: Fer (mouse); assay: as above
[12] = tested on: c-Src; assay: as above
[13] = molecular target: FGFR1 (UniProt P11362); assay: as above
[14] = molecular target: Grb2 SH2 (UniProt P62993); assay: SH2 binding enrichment of the phosphorylated peptide, bacterial display (enrichment ratio); higher = better substrate or ligand; peptides without Tyr show the background
[15] = molecular target: SHP2-C SH2; assay: as above
[16] = molecular target: c-Src SH2; assay: as above
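Wherever SH2 binding enrichment of the phosphorylated peptide, bacterial display is given: peptide library displayed on the E. coli surface as eCPX fusions, selected cells deep-sequenced, score is each peptide's frequency after selection divided by its frequency in the input.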
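Wherever phosphorylation enrichment, bacterial display is given: 11-residue human phosphosite peptides and single-mutation variants displayed on the E. coli surface, counted by deep sequencing, each peptide's frequency after selection divided by its frequency in the unselected input library; frequency after pTyr selection over input frequency; kinase dosed for 20-30% of maximal phosphorylation in three min.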

Sequence of Fes (P07332 whole entry, looked up): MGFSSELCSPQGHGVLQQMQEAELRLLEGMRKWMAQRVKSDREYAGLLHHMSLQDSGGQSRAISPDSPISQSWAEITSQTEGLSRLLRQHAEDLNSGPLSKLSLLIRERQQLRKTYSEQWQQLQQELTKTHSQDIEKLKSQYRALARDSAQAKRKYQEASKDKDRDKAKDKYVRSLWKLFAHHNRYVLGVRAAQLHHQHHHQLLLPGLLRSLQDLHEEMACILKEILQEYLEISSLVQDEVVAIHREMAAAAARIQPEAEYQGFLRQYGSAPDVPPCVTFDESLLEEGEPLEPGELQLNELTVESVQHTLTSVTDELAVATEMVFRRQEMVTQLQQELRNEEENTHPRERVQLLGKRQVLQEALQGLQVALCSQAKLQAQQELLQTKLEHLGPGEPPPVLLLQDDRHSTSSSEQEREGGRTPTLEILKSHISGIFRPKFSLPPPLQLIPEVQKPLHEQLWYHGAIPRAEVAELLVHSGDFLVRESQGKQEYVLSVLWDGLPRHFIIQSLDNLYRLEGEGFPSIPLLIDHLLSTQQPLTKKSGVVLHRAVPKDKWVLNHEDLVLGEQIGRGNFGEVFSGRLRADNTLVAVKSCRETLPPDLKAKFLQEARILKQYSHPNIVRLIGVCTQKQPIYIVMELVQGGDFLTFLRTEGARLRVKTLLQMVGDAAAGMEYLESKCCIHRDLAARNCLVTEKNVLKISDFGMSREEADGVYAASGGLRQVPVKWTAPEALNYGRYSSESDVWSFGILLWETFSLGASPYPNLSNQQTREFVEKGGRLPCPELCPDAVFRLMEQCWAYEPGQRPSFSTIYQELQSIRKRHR
Sequence of Fyn (P06241 whole entry, looked up): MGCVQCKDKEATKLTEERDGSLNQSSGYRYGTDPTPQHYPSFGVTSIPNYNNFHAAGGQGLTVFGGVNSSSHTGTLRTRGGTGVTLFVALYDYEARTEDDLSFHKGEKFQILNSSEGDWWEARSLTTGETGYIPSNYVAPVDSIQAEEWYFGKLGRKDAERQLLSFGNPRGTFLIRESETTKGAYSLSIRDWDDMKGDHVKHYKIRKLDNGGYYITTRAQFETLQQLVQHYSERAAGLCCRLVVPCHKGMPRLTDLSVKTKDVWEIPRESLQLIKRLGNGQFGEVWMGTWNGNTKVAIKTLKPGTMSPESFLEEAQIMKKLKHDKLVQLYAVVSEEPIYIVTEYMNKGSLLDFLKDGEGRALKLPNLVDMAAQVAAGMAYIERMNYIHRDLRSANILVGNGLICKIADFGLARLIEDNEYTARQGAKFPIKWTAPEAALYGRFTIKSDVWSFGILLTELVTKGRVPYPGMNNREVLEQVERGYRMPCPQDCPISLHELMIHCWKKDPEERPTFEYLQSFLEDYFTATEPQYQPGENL
Sequence of EPHB1 (P54762 whole entry, looked up): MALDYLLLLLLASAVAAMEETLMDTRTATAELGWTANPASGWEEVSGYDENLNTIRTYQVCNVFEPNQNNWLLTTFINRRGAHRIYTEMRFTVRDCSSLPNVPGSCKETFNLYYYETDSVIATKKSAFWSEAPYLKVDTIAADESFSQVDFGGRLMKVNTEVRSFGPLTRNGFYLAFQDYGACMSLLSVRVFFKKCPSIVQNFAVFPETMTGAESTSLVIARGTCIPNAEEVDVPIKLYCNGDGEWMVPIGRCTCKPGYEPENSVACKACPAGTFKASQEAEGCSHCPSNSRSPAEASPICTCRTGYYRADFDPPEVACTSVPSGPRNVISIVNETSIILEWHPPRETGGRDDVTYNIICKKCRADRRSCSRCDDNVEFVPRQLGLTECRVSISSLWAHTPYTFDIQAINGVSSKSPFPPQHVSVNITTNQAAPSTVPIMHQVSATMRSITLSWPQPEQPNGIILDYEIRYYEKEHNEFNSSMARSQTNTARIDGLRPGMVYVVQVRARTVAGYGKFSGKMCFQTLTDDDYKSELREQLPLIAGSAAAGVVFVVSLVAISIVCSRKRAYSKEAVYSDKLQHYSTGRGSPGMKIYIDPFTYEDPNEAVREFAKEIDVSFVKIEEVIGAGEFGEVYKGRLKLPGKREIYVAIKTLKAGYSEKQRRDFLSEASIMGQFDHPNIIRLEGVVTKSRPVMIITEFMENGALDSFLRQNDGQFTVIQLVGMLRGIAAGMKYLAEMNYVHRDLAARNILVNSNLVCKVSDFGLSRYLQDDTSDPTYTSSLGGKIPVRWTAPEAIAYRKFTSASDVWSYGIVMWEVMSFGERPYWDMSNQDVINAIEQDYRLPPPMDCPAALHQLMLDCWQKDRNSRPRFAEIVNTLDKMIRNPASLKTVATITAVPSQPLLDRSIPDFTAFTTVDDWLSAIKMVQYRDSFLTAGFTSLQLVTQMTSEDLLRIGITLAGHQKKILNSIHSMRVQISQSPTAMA
Sequence of Jak2 (O60674 whole entry, looked up): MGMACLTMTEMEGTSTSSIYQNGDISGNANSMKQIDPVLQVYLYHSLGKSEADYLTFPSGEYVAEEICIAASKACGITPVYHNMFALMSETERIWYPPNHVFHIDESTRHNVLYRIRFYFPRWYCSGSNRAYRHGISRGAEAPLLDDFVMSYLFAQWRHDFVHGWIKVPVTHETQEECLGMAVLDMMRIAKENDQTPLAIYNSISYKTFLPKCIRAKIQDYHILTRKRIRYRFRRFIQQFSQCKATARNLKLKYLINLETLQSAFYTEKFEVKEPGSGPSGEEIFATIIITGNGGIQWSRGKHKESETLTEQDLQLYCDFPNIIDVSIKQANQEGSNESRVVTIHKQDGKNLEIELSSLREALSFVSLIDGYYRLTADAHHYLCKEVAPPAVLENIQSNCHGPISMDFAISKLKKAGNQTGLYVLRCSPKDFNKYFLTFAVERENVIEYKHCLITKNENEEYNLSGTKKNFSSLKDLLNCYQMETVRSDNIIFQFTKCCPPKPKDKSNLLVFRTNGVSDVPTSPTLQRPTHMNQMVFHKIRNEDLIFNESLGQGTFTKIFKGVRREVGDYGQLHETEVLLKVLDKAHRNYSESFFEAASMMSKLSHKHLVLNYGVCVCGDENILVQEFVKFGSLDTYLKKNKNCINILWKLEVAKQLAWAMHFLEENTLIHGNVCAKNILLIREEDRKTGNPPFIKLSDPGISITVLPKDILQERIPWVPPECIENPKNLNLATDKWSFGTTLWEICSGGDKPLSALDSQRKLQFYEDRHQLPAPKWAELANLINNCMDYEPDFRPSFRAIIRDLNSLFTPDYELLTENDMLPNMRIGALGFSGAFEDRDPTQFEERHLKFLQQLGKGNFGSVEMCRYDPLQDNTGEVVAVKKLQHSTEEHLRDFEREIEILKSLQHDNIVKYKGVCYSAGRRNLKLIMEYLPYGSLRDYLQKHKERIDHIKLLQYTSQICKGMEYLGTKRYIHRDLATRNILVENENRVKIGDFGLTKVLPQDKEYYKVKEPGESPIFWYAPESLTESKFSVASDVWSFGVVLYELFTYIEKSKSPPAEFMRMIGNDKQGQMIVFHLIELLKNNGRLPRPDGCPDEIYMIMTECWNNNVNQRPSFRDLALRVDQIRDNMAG
Sequence of MERTK (Q12866 whole entry, looked up): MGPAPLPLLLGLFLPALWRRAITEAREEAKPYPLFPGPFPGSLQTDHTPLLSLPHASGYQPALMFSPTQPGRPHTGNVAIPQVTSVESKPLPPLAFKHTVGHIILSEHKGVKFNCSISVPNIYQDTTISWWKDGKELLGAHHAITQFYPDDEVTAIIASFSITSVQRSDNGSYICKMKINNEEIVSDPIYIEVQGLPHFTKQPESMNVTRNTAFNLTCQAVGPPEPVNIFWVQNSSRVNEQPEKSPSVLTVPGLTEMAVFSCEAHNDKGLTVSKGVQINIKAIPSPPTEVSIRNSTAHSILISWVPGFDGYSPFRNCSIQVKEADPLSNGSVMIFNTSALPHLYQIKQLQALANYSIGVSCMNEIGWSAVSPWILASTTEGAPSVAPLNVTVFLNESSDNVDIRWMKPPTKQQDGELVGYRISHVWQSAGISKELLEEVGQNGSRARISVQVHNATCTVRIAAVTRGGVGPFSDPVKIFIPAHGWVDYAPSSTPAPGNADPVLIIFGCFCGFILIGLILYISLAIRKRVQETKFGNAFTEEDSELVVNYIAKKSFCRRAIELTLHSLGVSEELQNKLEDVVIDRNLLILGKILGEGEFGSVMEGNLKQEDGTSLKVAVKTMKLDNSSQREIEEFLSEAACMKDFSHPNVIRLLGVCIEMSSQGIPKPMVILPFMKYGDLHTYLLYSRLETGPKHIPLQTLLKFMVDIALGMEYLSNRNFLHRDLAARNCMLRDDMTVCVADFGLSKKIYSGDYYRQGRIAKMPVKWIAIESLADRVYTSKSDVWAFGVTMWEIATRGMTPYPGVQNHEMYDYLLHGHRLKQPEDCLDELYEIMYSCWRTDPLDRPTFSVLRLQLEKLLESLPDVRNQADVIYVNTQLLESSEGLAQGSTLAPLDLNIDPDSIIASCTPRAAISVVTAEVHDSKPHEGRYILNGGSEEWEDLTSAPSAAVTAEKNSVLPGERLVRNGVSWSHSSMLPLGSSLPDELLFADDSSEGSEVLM
Sequence of Grb2 SH2 (P62993 whole entry, looked up): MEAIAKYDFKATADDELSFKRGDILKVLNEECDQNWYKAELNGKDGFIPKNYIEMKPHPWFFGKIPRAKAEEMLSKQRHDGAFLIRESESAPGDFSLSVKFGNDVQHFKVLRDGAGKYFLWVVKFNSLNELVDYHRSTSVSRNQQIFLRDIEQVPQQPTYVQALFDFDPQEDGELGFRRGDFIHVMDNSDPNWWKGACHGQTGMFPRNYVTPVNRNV

Sequence	phosphorylation enrichment [1]	phosphorylation enrichment [2]	phosphorylation enrichment [3]	phosphorylation enrichment [4]	phosphorylation enrichment [5]	phosphorylation enrichment [6]	phosphorylation enrichment [7]	phosphorylation enrichment [8]	phosphorylation enrichment [9]	phosphorylation enrichment [10]	phosphorylation enrichment [11]	phosphorylation enrichment [12]	phosphorylation enrichment [13]	SH2 binding enrichment [14]	SH2 binding enrichment [15]	SH2 binding enrichment [16]
IVKAYYVRARA [AIPL1_Y268]	0.466	1.01	0.743	0.502	0.512	0.936	0.358	0.47	0.419	0.471	0.396	0.361	0.466	0.976	0.923	0.521
RPDSPYSRLHD [DOK2_Y271_P274L]	0.464	0.916	3.09	0.85	0.957	0.983	0.471	0.467	0.614	0.657	0.65	0.884	0.552	0.796	1.1	2.87
VLPIDYYFPPQ [AR_Y552]	0.687	4.75	6.26	2.47	1.06	1.08	3.48	3.36	0.869	12.6	0.694	1.28	15.4	0.962	0.85	1.03
LEIETCRRLLD [KRT12_Y429_Y429C]	0.635	1.2	1.07	0.411	1.01	1.33	0.939	0.913	0.759	1.2	0.474	0.415	0.722	0.883	0.64	0.648
KQFWRYFPGNL [SLC25A4_Y112_A114P]	0.35	0.904	0.919	0.402	0.695	1.02	0.625	0.521	0.524	0.676	0.469	0.496	0.444	1.18	0.863	0.739
QTEAEYRFIYM [PTPN11_Y511_Q510E]	0.828	1.55	1.51	0.641	1.26	1.86	1.09	0.65	0.886	3.09	1.11	0.878	4.4	0.7	0.553	0.423
VEDHDYEGGIG [TKT_Y564_Y563D]	0.518	1.49	1.24	0.517	1.01	1.45	0.737	0.785	0.609	0.874	0.602	0.624	0.571	0.697	0.506	0.402
FGISGYVVDSV [MAP2K3_Y214_L215V]	0.449	0.775	0.761	0.443	0.532	0.956	0.543	0.517	0.49	0.623	0.421	0.412	0.478	0.742	0.605	0.719
FFCRWYRNQKS [EREG_Y144_R147Q_YF]	0.482	0.775	0.488	0.497	0.855	0.6	0.493	0.489	0.596	0.478	0.513	0.57	0.347	0.603	0.657	0.496
KILGRYYETSS [PAX2_Y72_G76S]	0.424	0.568	0.595	0.453	0.613	0.65	0.428	0.502	0.344	0.541	0.447	0.51	0.435	0.89	0.726	1.62
RGGWAYVLHPT [TRMT61A_Y67_V66A]	0.505	1.34	1.1	0.52	0.93	1.51	0.711	0.816	0.509	0.698	0.611	0.671	0.663	0.905	0.654	0.437
QSSALYEDCYL [ASS1_Y83_R86C]	3	1.82	1.5	3.43	1.35	2.95	12.4	7.55	1.84	1.02	16.9	3.61	0.788	0.863	0.514	0.86
RREWYYEVIIA [BACE1_Y260_V265A]	0.462	1.3	1.26	1.52	0.542	0.733	0.539	0.442	0.513	2.9	0.764	0.926	4.47	0.673	0.55	0.415
SVTCTCSPALN [TP53_Y126_Y126C]	0.479	1.16	1.15	0.395	0.907	1.48	0.704	0.614	0.526	0.889	0.533	0.415	0.585	0.856	0.508	0.472
KVFRVYQGQQP [MUTYH_Y494]	0.374	0.569	0.484	0.344	0.413	0.608	0.308	0.415	0.388	0.494	0.37	0.375	0.439	0.849	0.55	0.52
KDAGDYKFKAK [LRIT3_Y326_C328Y_YF]	0.322	0.406	0.392	0.443	0.338	0.613	0.345	0.259	0.38	0.362	0.278	0.305	0.421	0.792	0.853	0.504
